Experimental findings from patent US20170355734A1 (INSERM INSTITUT NATIONAL DE LA SANT ET DE LA RECHERCHE M …, published 2017) are described below.

The target of experiment [1] is T1, wild-type rat apelin receptor-EGFP (rat, UniProt Q9JHG3 1-377, EGFP is fused at the C-terminal (intracellular) end of the receptor. It is not included in the letters.).
T1 sequence: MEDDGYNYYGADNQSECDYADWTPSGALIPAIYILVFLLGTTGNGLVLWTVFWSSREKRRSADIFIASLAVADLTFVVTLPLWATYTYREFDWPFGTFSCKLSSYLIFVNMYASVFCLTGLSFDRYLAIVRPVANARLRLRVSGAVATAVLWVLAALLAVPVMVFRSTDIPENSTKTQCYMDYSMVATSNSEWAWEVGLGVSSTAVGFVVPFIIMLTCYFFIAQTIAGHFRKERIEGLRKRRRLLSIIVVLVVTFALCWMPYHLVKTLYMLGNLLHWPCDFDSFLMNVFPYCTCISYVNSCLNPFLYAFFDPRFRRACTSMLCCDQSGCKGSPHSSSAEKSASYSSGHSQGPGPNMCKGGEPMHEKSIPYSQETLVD
The experiment is described as follows: cell-based or functional assay.

Experiment [2] addresses T1, wild-type rat apelin receptor-EGFP. Description: competitive radioligand binding vs [125I]-pE13F, membranes of CHO cells expressing rat apelin receptor-EGFP. The method, then: (§1) Crude membrane preparation from CHO stably expressing the wild-type rat apelin receptor-EGFP, were prepared as previously described (39). […] The reaction was stopped by adding ice-cold binding buffer and filtered through glass microfiber filters (Whatman GF/C filters). Radioactivity was counted in Wizard 1470 Wallac gamma counter (Perkin Elmer, Turku, Finland).

Experiment [3] shares this target. The experiment is described as follows: cell-based or functional assay. This is another data set of the same source.
Experiment [4] shares this target. Description: competitive radioligand binding vs [125I]-pE13F, membranes of CHO cells expressing rat apelin receptor-EGFP. The method, then: as §1
This is another data set of the same source.

For experiment [5] the target is unchanged. Described as above. The method, then:
as §1
The source holds these as a separate data set.

The target is the same in experiment [6]. Description: cell-based or functional assay. The source holds these as a separate data set.
Experiment [7] shares this target. Description: cell-based or functional assay. The source holds these as a separate data set.

Read-outs that look alike come from different tables or passages of the source.

B1: K17F (apelin-17) (peptide)
peptide: H-KFRRQRPRLSHKGPMPF-OH
Take B1: in experiment [1], the “ERK1/2 phosphorylation EC50” value was 4.08 nM, the “Inhibition of FSK-induced cAMP production IC50” value came to 0.3 nM and the “Internalization EC50” value was found to be 0.26 nM. The affinity in experiment [2], expressed as Ki, was 0.26 nM. Besides, in experiment [3], the “ERK1/2 phosphorylation EC50” value was 4.08 nM, the “Internalization EC50” value was determined as 0.26 nM and the “cAMP production IC50” value is 0.3 nM. Besides, in experiment [4], the Ki amounted to 0.06 nM. For the same molecule, in experiment [5], the IC50 turned out to be 0.29 nM and the affinity, expressed as Ki, was 0.049 nM. Further, the “cAMP production IC50” value in experiment [6] was found to be 0.3 nM. The “IC50 cAMP inhibition” value in experiment [7] came out at 0.09 nM.

As a reminder, the Ki is the dissociation constant of the complex between target and ligand, obtained from inhibition or displacement. Higher therefore signals weaker binding. Usually IC50 stands for the concentration that gives 50% inhibition.
